Measured values taken from PMC4127255.

Tests used:
[1] = molecular target: acetylcholine-binding protein from Aplysia californica (Ac-AChBP) (Aplysia californica); assay: SEC; […]; 50 mM NaCl, 50 mM Tris pH 8.0, 0.5 mL/min, […]
[2] = molecular target: acetylcholine-binding protein from Aplysia californica (Ac-AChBP) (Aplysia californica); assay: non-reduced SDS-PAGE

acetylcholine-binding protein from Aplysia californica (Ac-AChBP) (natural protein)
stoichiometry N [1]: 5
stoichiometry N [2]: 5
